Source: PMC11271386 (Analytical and Bioanalytical Chemistry, 2024)

T1: ^FlagDNAJB8^H31Q (human, UniProt Q8NHS0 1-232, H31Q)
T1 construct: DNAJB8, human Class B Hsp40, with the J-domain mutation H31Q; source: HEK293T, transfected (calcium phosphate), in lysate
T1 sequence (looked up): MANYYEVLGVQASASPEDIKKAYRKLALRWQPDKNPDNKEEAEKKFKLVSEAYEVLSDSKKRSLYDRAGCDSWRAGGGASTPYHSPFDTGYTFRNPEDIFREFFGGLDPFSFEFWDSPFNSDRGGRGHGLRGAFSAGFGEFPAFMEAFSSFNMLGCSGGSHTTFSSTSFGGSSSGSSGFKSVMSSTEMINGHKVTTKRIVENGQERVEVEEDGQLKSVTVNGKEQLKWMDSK

T2: ^FlagDNAJB8^WT (human, UniProt Q8NHS0 1-232)
T2 construct: DNAJB8, human Class B Hsp40 (J-domain protein); also called Hsp40 DNAJB8; source: HEK293T, transfected (calcium phosphate), in lysate
T2 sequence (looked up): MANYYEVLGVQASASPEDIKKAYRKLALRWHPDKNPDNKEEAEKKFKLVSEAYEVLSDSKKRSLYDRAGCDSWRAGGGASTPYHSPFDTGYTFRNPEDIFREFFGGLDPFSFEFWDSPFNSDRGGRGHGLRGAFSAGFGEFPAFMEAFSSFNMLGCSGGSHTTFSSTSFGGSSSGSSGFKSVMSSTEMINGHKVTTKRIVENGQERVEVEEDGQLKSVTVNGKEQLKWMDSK


Columns and labels:
^FlagDNAJB8^H31Q = biological target: T1, ^FlagDNAJB8^H31Q; assay: affinity purification with mass spectrometry; TMT-AP-MS comparing four conditions: ^FlagDNAJB8 WT vs. H31Q, with or without 1 mM DSP crosslinking of the cells before lysis; RIPA lysis and washes, M2 anti-Flag beads; crosslinks reversed with TCEP; three biological replicates; conditions: partners not purified
^FlagDNAJB8^WT = biological target: T2, ^FlagDNAJB8^WT; assay: as above; conditions: partners not purified

Row | fold change of recovery with DNAJB8^H31Q compared to DNAJB8^WT, −DSP (^FlagDNAJB8^H31Q) | fold change recovery with DSP crosslinking against without (^FlagDNAJB8^H31Q) | fold change recovery with DSP crosslinking against without (^FlagDNAJB8^WT) | Binder
1 | 3.4 ± 0.9 fold | – | – | PFDN1 (natural protein, human (endogenous in HEK293T), UniProt O60925 1-122, looked up, PFDN1, prefoldin β subunit, human; also called prefoldin β subunit; source: endogenous, HEK293T lysate) MAAPVDLELKKAFTELQAKVIDTQQKVKLADIQIEQLNRTKKHAHLTDTEIMTLVDETNMYEGVGRMFILQSKEAIHSQLLEKQKIAEEKIKELEQKKSYLERSVKEAEDNIREMLMARRAQ
2 | – | 3.2 ± 0.8% | 4.8 ± 0.7% | 14–3-3θ/YWHAQ (natural protein, human (endogenous in HEK293T), UniProt P27348 1-245, looked up, 14-3-3 theta (YWHAQ), human; source: endogenous, HEK293T lysate) MEKTELIQKAKLAEQAERYDDMATCMKAVTEQGAELSNEERNLLSVAYKNVVGGRRSAWRVISSIEQKTDTSDKKLQLIKDYREKVESELRSICTTVLELLDKYLIANATNPESKVFYLKMKGDYFRYLAEVACGDDRKQTIDNSQGAYQEAFDISKKEMQPTHPIRLGLALNFSVFYYEILNNPELACTLAKTAFDEAIAELDTLNEDSYKDSTLIMQLLRDNLTLWTSDSAGEECDAAEGAEN
